According to the supplement of paper PMC9112550, “Optimization of the antimicrobial peptide Bac7 by deep mutational scanning” (BMC Biology, 2022):

The sequences below were run on Escherichia coli TOP10 (assay: shrunken log2 fold change of peptide-encoding DNA abundance (4.5 h post-induction vs induction); higher = less antimicrobial activity (less host growth inhibition)). Conditions: time post-induction: 4.5 h; library: site-saturation at positions 5, 18, 19, 20.
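Note: peptides expressed intracellularly from a pBAD plasmid library in pooled LB shake-flask culture, induced with 0.3% L-arabinose, DNA abundance read by NGS, three biological replicates, DESeq2 with apeglm shrinkage.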

Sequence | shrunken log2 fold change
RRIRSRPPRLPRPRPRPQPHPRP | 0.17
RRIRYRPPRLPRPRPRPQWQPRP | -0.00114
RRIRLRPPRLPRPRPRPSWHPRP | 0.25
RRIRIRPPRLPRPRPRPDSKPRP | -0.325
RRIRPRPPRLPRPRPRPDWIPRP | -0.444
RRIRFRPPRLPRPRPRPKGKPRP | 0.195
RRIRERPPRLPRPRPRPAYLPRP | -0.296
RRIRSRPPRLPRPRPRPRYPPRP | -0.036
RRIRDRPPRLPRPRPRPHNVPRP | 0.00884
RRIRQRPPRLPRPRPRPPVGPRP | 0.119
RRIRFRPPRLPRPRPRPRVKPRP | -0.154
RRIRIRPPRLPRPRPRPDLIPRP | -0.217
RRIRNRPPRLPRPRPRPNLRPRP | -0.325
RRIRYRPPRLPRPRPRPLMIPRP | -1.73
RRIRWRPPRLPRPRPRPFWLPRP | 0.0108
RRIRVRPPRLPRPRPRPQQCPRP | 0.145
RRIRWRPPRLPRPRPRPKREPRP | 0.0441
RRIRYRPPRLPRPRPRPHRSPRP | -0.017
RRIRKRPPRLPRPRPRPQIVPRP | 0.119
RRIRHRPPRLPRPRPRPQEVPRP | -0.0461
RRIRTRPPRLPRPRPRPQTFPRP | -0.567
RRIRSRPPRLPRPRPRPEKDPRP | 0.124
RRIRHRPPRLPRPRPRPAYYPRP | -0.624
RRIRTRPPRLPRPRPRPPFEPRP | 0.156
RRIRQRPPRLPRPRPRPECYPRP | 0.0583

Sequence | shrunken log2 fold change
RRIRTRPPRLPRPRPRPTSKPRP | -0.343
RRIRNRPPRLPRPRPRPPAQPRP | 0.314
RRIRTRPPRLPRPRPRPTNMPRP | -0.409
RRIRGRPPRLPRPRPRPIWDPRP | 0.474
RRIRKRPPRLPRPRPRPLCAPRP | 0.604
RRIRQRPPRLPRPRPRPGHQPRP | -0.00101
RRIRFRPPRLPRPRPRPGFNPRP | -0.22
RRIRKRPPRLPRPRPRPLTYPRP | 0.0522
RRIRWRPPRLPRPRPRPTYGPRP | 0.0553
RRIRERPPRLPRPRPRPDGWPRP | 0.0267
RRIRYRPPRLPRPRPRPYCVPRP | -1.71
RRIRSRPPRLPRPRPRPNHMPRP | -0.236
RRIRKRPPRLPRPRPRPIHVPRP | -0.0353
RRIRQRPPRLPRPRPRPRSVPRP | 0.235
RRIRSRPPRLPRPRPRPMINPRP | -0.23
RRIRGRPPRLPRPRPRPGLEPRP | 1.1
RRIRIRPPRLPRPRPRPMTIPRP | -1.16
RRIRARPPRLPRPRPRPNDSPRP | -0.225
RRIRSRPPRLPRPRPRPYINPRP | -0.879
RRIRGRPPRLPRPRPRPLAHPRP | 0.546
RRIRWRPPRLPRPRPRPCHIPRP | -0.414
RRIRKRPPRLPRPRPRPKYRPRP | -0.00889
RRIRERPPRLPRPRPRPMGKPRP | -0.01
RRIRARPPRLPRPRPRPPWLPRP | 0.495
RRIRWRPPRLPRPRPRPHLVPRP | 0.392

Sequence | shrunken log2 fold change
RRIRARPPRLPRPRPRPQFSPRP | 0.0761
RRIRHRPPRLPRPRPRPPCLPRP | -0.0439
RRIRMRPPRLPRPRPRPEEAPRP | 3.94
RRIRRRPPRLPRPRPRPDSYPRP | -0.117
RRIRVRPPRLPRPRPRPSGQPRP | 0.0937
RRIRLRPPRLPRPRPRPSHYPRP | -0.367
RRIRGRPPRLPRPRPRPEAKPRP | 1.76
RRIRVRPPRLPRPRPRPENMPRP | -0.0886
RRIRTRPPRLPRPRPRPDTSPRP | -0.324
RRIRHRPPRLPRPRPRPRWCPRP | 0.0475
RRIRQRPPRLPRPRPRPCHYPRP | -0.000921
RRIRTRPPRLPRPRPRPCWDPRP | -0.192
RRIRGRPPRLPRPRPRPHDFPRP | -0.0983
RRIRARPPRLPRPRPRPFHGPRP | 0.0917
RRIRGRPPRLPRPRPRPHILPRP | -0.198
RRIRYRPPRLPRPRPRPGQCPRP | 0.00338
RRIRLRPPRLPRPRPRPGTHPRP | -0.107
RRIRSRPPRLPRPRPRPYIDPRP | -0.071
RRIRWRPPRLPRPRPRPVNHPRP | -0.191
RRIRDRPPRLPRPRPRPAMGPRP | 0.399
RRIRQRPPRLPRPRPRPGHNPRP | 0.0106
RRIRNRPPRLPRPRPRPLFHPRP | -0.595
RRIRKRPPRLPRPRPRPRWHPRP | 0.0132
RRIRSRPPRLPRPRPRPQGVPRP | 0.225
RRIRRRPPRLPRPRPRPEDKPRP | 0.103

Sequence | shrunken log2 fold change
RRIRDRPPRLPRPRPRPNTPPRP | -0.0665
RRIRVRPPRLPRPRPRPRGGPRP | 0.609
RRIRYRPPRLPRPRPRPPTPPRP | 0.104
RRIRNRPPRLPRPRPRPGFKPRP | -0.171
RRIRERPPRLPRPRPRPDWRPRP | -0.0634
RRIRKRPPRLPRPRPRPWGPPRP | -0.125
RRIRYRPPRLPRPRPRPMYKPRP | -0.28
RRIRIRPPRLPRPRPRPTPYPRP | -0.44
RRIRIRPPRLPRPRPRPWKLPRP | -0.0644
RRIRLRPPRLPRPRPRPVWRPRP | 0.299
RRIRCRPPRLPRPRPRPTSQPRP | 0.00813
RRIRARPPRLPRPRPRPPSYPRP | 0.0336
RRIRIRPPRLPRPRPRPLYWPRP | -0.456
RRIRERPPRLPRPRPRPHWYPRP | -1.19
RRIRVRPPRLPRPRPRPMYSPRP | -0.242
RRIRGRPPRLPRPRPRPKDQPRP | 0.843
RRIRTRPPRLPRPRPRPLVTPRP | -0.227
RRIRCRPPRLPRPRPRPIWVPRP | -0.0515
RRIRARPPRLPRPRPRPDATPRP | 1.6
RRIRTRPPRLPRPRPRPDERPRP | -0.146
RRIRMRPPRLPRPRPRPKIEPRP | 0.367
RRIRKRPPRLPRPRPRPPRFPRP | 0.733
RRIRLRPPRLPRPRPRPREHPRP | 0.204
RRIRMRPPRLPRPRPRPYPMPRP | -0.126
RRIRMRPPRLPRPRPRPVPAPRP | 1.11

Sequence | shrunken log2 fold change
RRIRHRPPRLPRPRPRPTRMPRP | 0.237
RRIRHRPPRLPRPRPRPPNLPRP | 0.189
RRIRCRPPRLPRPRPRPHEYPRP | -0.253
RRIRSRPPRLPRPRPRPYWVPRP | -0.314
RRIRERPPRLPRPRPRPHLIPRP | -0.207
RRIRPRPPRLPRPRPRPHDIPRP | 0.152
RRIRARPPRLPRPRPRPMNPPRP | -0.0638
RRIRRRPPRLPRPRPRPDCKPRP | -0.176
RRIRLRPPRLPRPRPRPQLDPRP | 0.0655
RRIRFRPPRLPRPRPRPTAIPRP | -0.0113
RRIRYRPPRLPRPRPRPVGEPRP | 0.207
RRIRTRPPRLPRPRPRPHPMPRP | -0.167
RRIRFRPPRLPRPRPRPWEAPRP | -0.0969
RRIRQRPPRLPRPRPRPMRPPRP | 0.968
RRIRYRPPRLPRPRPRPVRVPRP | 0.0746
RRIRLRPPRLPRPRPRPTINPRP | -0.524
RRIRWRPPRLPRPRPRPESNPRP | 0.535
RRIRSRPPRLPRPRPRPRVYPRP | -0.348
RRIRPRPPRLPRPRPRPQRSPRP | 0.265
RRIRYRPPRLPRPRPRPGVHPRP | -0.452
RRIRPRPPRLPRPRPRPRKVPRP | 0.00959
RRIRDRPPRLPRPRPRPVIVPRP | 0.0947
RRIRARPPRLPRPRPRPYYCPRP | -0.331
RRIRYRPPRLPRPRPRPSNKPRP | -0.953
RRIRVRPPRLPRPRPRPGRQPRP | 0.0976

Sequence | shrunken log2 fold change
RRIRCRPPRLPRPRPRPMYEPRP | -0.264
RRIRARPPRLPRPRPRPCCTPRP | 0.485
RRIRRRPPRLPRPRPRPEGCPRP | 0.863
RRIRMRPPRLPRPRPRPKKRPRP | 2.01
RRIRHRPPRLPRPRPRPLEPPRP | -0.55
RRIRRRPPRLPRPRPRPWQGPRP | -0.00783
RRIRDRPPRLPRPRPRPDACPRP | 0.52
RRIRYRPPRLPRPRPRPLNSPRP | -0.0402
RRIRCRPPRLPRPRPRPVVKPRP | 0.0236
RRIRLRPPRLPRPRPRPLPCPRP | 0.142
RRIRQRPPRLPRPRPRPMFRPRP | -0.0146
RRIRCRPPRLPRPRPRPVRRPRP | 1.1
RRIRCRPPRLPRPRPRPHMHPRP | -0.527
RRIRFRPPRLPRPRPRPYPRPRP | -0.6
RRIRARPPRLPRPRPRPTKDPRP | 0.144
RRIRGRPPRLPRPRPRPECMPRP | 1.49
RRIRHRPPRLPRPRPRPYRVPRP | -0.0718
RRIRGRPPRLPRPRPRPPEDPRP | 1.21
RRIRHRPPRLPRPRPRPYDWPRP | -0.0123
RRIRSRPPRLPRPRPRPVLNPRP | -0.169
RRIRVRPPRLPRPRPRPLVVPRP | -0.21
RRIRIRPPRLPRPRPRPLGDPRP | -0.0585
RRIRIRPPRLPRPRPRPQYRPRP | -0.0599
RRIRNRPPRLPRPRPRPMERPRP | 0.019
RRIRQRPPRLPRPRPRPWRPPRP | 0.143
